Literature values, collected in paper PMC7538161.

Molecular target: CaMKII calmodulin-binding element peptide (Peptide A) calmodulin-binding element peptide (Homo sapiens) (UniProt Q9UQM7)
Sequence (Q9UQM7 290-309): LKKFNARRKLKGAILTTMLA

Sequence of CaMKII hub hub domain (Q9UQM7 345-475): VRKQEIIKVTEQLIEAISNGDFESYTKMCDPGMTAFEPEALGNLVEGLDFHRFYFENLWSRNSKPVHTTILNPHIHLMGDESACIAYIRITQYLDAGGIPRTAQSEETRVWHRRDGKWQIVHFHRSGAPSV

- Kd: 90 µM
Substance: CaMKII hub hub domain (from UniProt Q9UQM7)
